This passage reports Ki and release of bradykinin from 1-chain HMWK (20 nM) by pKal (0.15 nM) after 1 h with DX-2930, bradykinin ELISA; blocks the proteolysis of HMWK by pKal results from publication PMC4156074.

The target in assay [1] is Full-length human plasma kallikrein, activated form (human) (UniProt P03952). The assay is described as follows: enzyme inhibition (steady state, tight-binding fit); DX-2930 IgG (up to 10 nM, 1.5-fold dilutions) incubated 1 h at 30 °C with 1 nM pKal, free or preincubated with 600 nM 2-chain HMWK, in 20 mM Tris-HCl pH 7.5, 150 mM NaCl, 1 mM EDTA, 0.1% PEG-8000, 0.1% Triton X-100; substrate H-Pro-Phe-Arg-AMC at 10, 50 or 100 uM; Ki from Ki app by Equation 2, averaged.

In assay [2] the target is pKal from cynomolgus monkey plasma (cynomolgus monkey). The assay is described as follows: enzyme inhibition (steady state, tight-binding fit); DX-2930 on purified pKal of mouse, rat, rabbit and cynomolgus monkey; apparent; data not shown.
Assay [3] concerns the target Full-length human plasma kallikrein, activated form (human) (UniProt P03952).

Full-length human plasma kallikrein, activated form (human), sequence (P03952 20-390, chain 1 of 2): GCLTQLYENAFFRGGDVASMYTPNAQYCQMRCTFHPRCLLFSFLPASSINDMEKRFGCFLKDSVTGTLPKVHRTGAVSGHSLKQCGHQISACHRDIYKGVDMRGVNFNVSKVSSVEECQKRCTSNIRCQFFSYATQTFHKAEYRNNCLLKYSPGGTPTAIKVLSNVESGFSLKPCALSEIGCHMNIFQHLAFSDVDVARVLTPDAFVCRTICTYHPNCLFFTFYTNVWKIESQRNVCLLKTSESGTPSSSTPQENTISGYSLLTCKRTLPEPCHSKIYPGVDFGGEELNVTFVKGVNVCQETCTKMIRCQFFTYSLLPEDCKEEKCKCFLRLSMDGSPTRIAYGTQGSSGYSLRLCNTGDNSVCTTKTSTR
Full-length human plasma kallikrein, activated form (human), sequence (P03952 391-638, chain 2 of 2): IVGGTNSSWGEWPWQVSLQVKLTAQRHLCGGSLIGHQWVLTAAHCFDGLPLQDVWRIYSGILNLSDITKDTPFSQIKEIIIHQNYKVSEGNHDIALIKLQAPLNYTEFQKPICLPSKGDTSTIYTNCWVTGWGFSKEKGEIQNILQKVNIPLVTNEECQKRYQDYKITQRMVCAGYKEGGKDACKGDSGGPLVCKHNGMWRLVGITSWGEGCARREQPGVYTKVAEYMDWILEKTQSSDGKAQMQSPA

B1: DX-2930, fully human IgG1 monoclonal antibody (antibody, V domains shown)
VH: EVQLLESGGGLVQPGGSLRLSCAASGFTFSHYIMMWVRQAPGKGLEWVSGIYSSGGITVYADSVKGRFTISRDNSKNTLYLQMNSLRAEDTAVYYCAYRRIGVPRRDEFDIWGQGTMVTVSS
VL: DIQMTQSPSTLSASVGDRVTITCRASQSISSWLAWYQQKPGKAPKLLIYKASTLESGVPSRFSGSGSGTEFTLTISSLQPDDFATYYCQQYNTYWTFGQGTKVEIK
With B1, the Ki in assay [1] came out at 120 pM; in assay [2] it was 70 pM. Also, the release of bradykinin from 1-chain HMWK (20 nM) by pKal (0.15 nM) after 1 h with DX-2930, bradykinin ELISA; blocks the proteolysis of HMWK by pKal in assay [3] was found to be 1.3 nM.
